Reference: paper PMC4938712 (Structure (London, England : 1993), 2016)

Columns and labels:
[1] = biological target: HIV-1 Rev L64A (HIV-1) (UniProt P04618)
[2] = biological target: HIV-1 Rev P31A (HIV-1) (UniProt P04618); experiment: AUC
[3] = biological target: T1, HIV-1 Rev, wild type (HIV-1), P04618; experiment: AUC; details: remark: other sources report otherwise
T1 chain: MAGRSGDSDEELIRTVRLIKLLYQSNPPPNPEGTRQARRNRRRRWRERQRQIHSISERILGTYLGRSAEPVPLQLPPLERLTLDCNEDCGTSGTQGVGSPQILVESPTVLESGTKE

[4] = biological target: HIV-1 Rev, wild type (HIV-1, UniProt P04618); experiment: crystal structure

HIV-1 Rev L64A (from UniProt P04618 1-116) (natural protein)
stoichiometry N [1]: 2

HIV-1 Rev P31A (from UniProt P04618 1-116) (natural protein)
stoichiometry N [2]: 4

B1: HIV-1 Rev, wild type, P04618 1-116 (natural protein)
chain: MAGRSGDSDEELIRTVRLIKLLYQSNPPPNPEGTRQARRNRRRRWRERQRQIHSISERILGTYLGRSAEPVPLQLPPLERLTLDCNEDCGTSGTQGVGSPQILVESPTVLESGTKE
stoichiometry N [3]: 4

B2: anti-Rev single-chain antibody variable fragment (scFv) (scFv, V domains shown)
VH: QEQLVESGGRLVTPGTALTLTCKVSGFSLSGFWLNWVRQAPGKGLEWVGAIYRGSGSEWYASWAKGRFTISDTSTTVTLKLTSPTTEDTATYFCAADTTDNGYFTIWGPGTLVTVSS
VL: ELVMTQTPSSVSEPVGGTVTIKCQASQSISSWLSWYQQKPGQPPKLLIYDASNLASGVPSRFMGSGSGTEYTLTISGVQREDAATYYCLGGYPAASYRTAFGGGTELEII
binding result [4]: binds
